Assay results as given in US20250277790A1 (Johns Hopkins, published 2025).

Molecular target: human EGFR tagged with the fluorescent protein mTurquoise at the C-terminus (wild-type), in plasma … (human, UniProt P00533 25-1210)
Test: cell-based or functional assay

EC50 of Y1068 phosphorylation per EGFR molecule: 5.5 nM
EC50 of Y1173 phosphorylation per EGFR molecule: 6.8 nM
B1: EGF ligand from mouse labeled with rhodamine at its N-terminus (rho-mEGF, Thermofisher, E3481) (ligand, UniProt P01132 977-1029, looked up)
chain: NSYPGCPSSYDGYCLNGGVCMHIESLDSYTCNCVIGYSGDRCQTRDLRWWELR
modifications: not fully specified; rhodamine (tetramethylrhodamine) at the N-terminus
